{"source": "patent US20140057253", "about": "“METHOD TO PREDICT THE PATTERN OF LOCOMOTION IN HORSES” (CAPILET GENETICS AB, published 2014)", "binders": {"B1": {"name": "DMRT-binding motif oligonucleotide (dsDNA)", "DNA 1": "GGATCCTCGAGAACAATGTAACAATTTCGCCC", "DNA 2": "GGGCGAAATTGTTACATTGTTCTCGAGGATCC"}}, "key": {"[1]": {"target": "DMRT3 Ser301STOP mutant (truncated, 300 aa) (Equus caballus, UniProt J7FCF0 SEQ:1-300)", "sequence (J7FCF0 other isoform, or with tags, fused parts or gaps mutant)": "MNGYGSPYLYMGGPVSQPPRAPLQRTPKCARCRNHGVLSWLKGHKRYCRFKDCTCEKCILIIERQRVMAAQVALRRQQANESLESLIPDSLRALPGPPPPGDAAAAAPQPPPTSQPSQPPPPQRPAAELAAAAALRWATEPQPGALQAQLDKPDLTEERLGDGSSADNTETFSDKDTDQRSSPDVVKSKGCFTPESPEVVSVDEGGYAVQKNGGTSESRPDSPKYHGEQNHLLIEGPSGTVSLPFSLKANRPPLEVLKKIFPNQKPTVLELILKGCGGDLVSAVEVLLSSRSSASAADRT", "assay": "EMSA; 150x cold competitor used; on ice 20 min then room temperature 30 min; truncation retains DNA binding", "details": "tags: myc; label: 32P (Klenow fill-in with alpha-32P-dCTP)", "procedure": "(§1) The oligonucleotide 5′-ggatcc[…]-3′ and its complementary sequence were annealed in 10 mM Tris pH 7.5, 1 mM EDTA, 50 mM KCl by firstly heating to 95° C. for 2 min and thereafter cooled to 25° C. (2 min/degree). The duplex was labelled with Klenow DNA polymerase and [α-32P]-dCTP and purified using a Bio-Rad Micro Bio-Spin 30 column. DMRT3 wild type and mutant protein were produced by in vitro-translation using a TNT Quick Coupled Transcription/Translation System (Promega). EMSA was performed as described by Culbertson & Leeds, 2003 (Looking at mRNA decay pathways through the window of molecular evolution. Curr. Opin. Genet. Dev. 13, 207-214) with the following modifications. No plasmid DNA was added and 1.0 μl in vitro-translated protein and 150× cold competitor were used. The reaction mixture was incubated on ice for 20 min before adding the radioactive oligo and thereafter incubated at room temperature for 30 min. Gels were run at 150 V in room temperature. […] It may therefore be a dominant negative form with normal DNA-binding but defective interaction with other proteins. This would be consistent with the clear phenotypic effects observed in heterozygotes. However, the mutation is not fully dominant as CA heterozygotes and AA homozygotes show distinct phenotypic differences."}, "DMRT3 wild-type": {"target": "DMRT3 wild-type (Equus caballus, UniProt F6W2R2 SEQ:1-474)", "sequence (F6W2R2 whole entry A151D)": "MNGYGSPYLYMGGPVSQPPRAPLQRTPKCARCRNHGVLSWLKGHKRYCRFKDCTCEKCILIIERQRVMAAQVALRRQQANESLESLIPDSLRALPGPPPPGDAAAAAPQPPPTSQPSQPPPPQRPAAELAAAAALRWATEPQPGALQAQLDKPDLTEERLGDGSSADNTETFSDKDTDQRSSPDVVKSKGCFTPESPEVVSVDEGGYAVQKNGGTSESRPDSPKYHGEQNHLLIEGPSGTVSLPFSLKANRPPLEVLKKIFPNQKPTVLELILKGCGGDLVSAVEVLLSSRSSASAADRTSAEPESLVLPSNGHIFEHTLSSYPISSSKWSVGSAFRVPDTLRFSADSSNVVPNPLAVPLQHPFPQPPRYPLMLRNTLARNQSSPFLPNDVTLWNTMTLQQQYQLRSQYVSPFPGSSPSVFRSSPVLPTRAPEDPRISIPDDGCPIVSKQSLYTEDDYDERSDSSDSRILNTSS", "assay": "EMSA; 150x cold competitor used; on ice 20 min then room temperature 30 min", "details": "tags: myc; label: 32P (Klenow fill-in with alpha-32P-dCTP)", "procedure": "as §1"}}}
{"binder": "B1", "values": [{"measurement": "binding result", "setting": "[1]", "value": "binds"}, {"measurement": "binding result", "setting": "DMRT3 wild-type", "value": "binds"}]}
